Results reported in article PMC12124957 (Nature chemical biology, 2025).

Target: the molecule itself
Experiment: light scattering at 340 nm

B1: ^ΔCFtsH (T. maritima FtsH variant devoid of the N-terminal TM domain (residues 1–146) and of Cys residues) (domain or fragment, UniProt Q9WZ49 147-610, looked up)
chain: ATMYKPSGNKRVTFKDVGGAEEAIEELKEVVEFLKDPSKFNRIGARMPKGILLVGPPGTGKTLLARAVAGEANVPFFHISGSDFVELFVGVGAARVRDLFAQAKAHAPSIVFIDEIDAVGRHRGAGLGGGHDEREQTLNQLLVEMDGFDSKEGIIVMAATNRPDILDPALLRPGRFDKKIVVDPPDMLGRKKILEIHTRNKPLAEDVNLEIIAKRTPGFVGADLENLVNEAALLAAREGRDKITMKDFEEAIDRVIAGPARKSKLISPKEKRIIAYHEAGHAVVSTVVPNGEPVHRISIIPRGYKALGYTLHLPEEDKYLVSRNELLDKLTALLGGRAAEEVVFGDVTSGAANDIERATEIARNMVSQLGMSEELGPLAWGKEEQEVFLGKEITRLRNYSEEVASKIDEEVKKIVTNSYERAKEIIRKYRKQLDNIVEILLEKETIEGDELRRILSEEFEKVVE
B1 was tested, and the koff was no less than 1.6 s⁻¹.
